B1: σ1 of reovirus strain rsT3D-σ1T249I (parent), on purified virions [mammalian orthoreovirus, strain type 3 Dearing GST-JAM-A ectodomain fusion protein [not stated] (parent)
chain 1: MDPRLREEVVRLIIALTSDNGASLSKGLESRVSALEKTSQIHSDTILRITQGLDDANKRIIALEQSRDDLVASVSDAQLAISRLESSIGALQTVVNGLDSSVTQLGARVGQLETGLAELRVDHDNLVARVDTAERNIGSLTTELSTLTLRVTSIQADFESRISTLERTAVTSAGAPLSIRNNRMTMGLNDGLTLSGNNLAIRLPGNTGLNIQNGGLQFRFNTDQFQIVNNNLTLKTTVFDSINSRIGAIEQSYVASAVTPLRLNSSTKVLDMLIDSSTLEINSSGQLTVRSTSPNLRYPIADVSGGIGMSPNYRFRQSMWIGIVSYSGSGLNWRVQVNSDIFIVDDYIHICLPAFDGFSIADGGDLSLNFVTGLLPPLLTGDTEPAFHNDVVTYGAQTVAIGLSSGGAPQYMSKNLWVEQWQDGVLRLRVEGGGSITHSNSKWPAMTVSYPRSFT
chain 2: SVTVHSSEPEVRIPENNPVKLSCAYSGFSSPRVEWKFDQGDTTRLVCYNNKITASYEDRVTFLPTGITFKSVTREDTGTYTCMVSEEGGNSYGEVKVKLIVLVPPSKPTVNIPSSATIGNRAVLTCSEQDGSPPSEYTWFKDGIVMPTNPKSTRAFSNSSYVLNPTTGELVFDPLSASDTGEYSCEARNGYGTPMTSNAVRMEAVERNVGV

Variants of: B1
Assay: SPR
Details: with GST-JAM-A ectodomain fusion protein, GST-JAM-A captured on biosensor surface, read off a plot
[1] = 6×1012 (green) particles/ml virus, parent: 62
[2] = 8×1012 (orange) particles/ml virus, parent: 98
[3] = 1013 (red) particles/ml virus, parent: 205

Row | Variant | response [1] [RU] | response [2] [RU] | response [3] [RU]
1 | chain 1 E384A | 140 | 280 | 460
2 | chain 1 G381A | 17 | 28 | 36
